Results from publication PMC9352680, “A comprehensive thermodynamic model for RNA binding by the Saccharomyces cerevisiae Pumilio protein PUF4”.
Positions count from the first letter of the chain named. In names and notes the source's numbering stands.

B1: Ib_S4_P4E.1_K4.1_C4.1_H4.1_[A4C]_A4.1_F4.1_[A9G]_T4.1 (ssRNA)
RNA: UUUGACAACUGAUCGUUCUUUCUUGUCUAUUGUUCUUUCUCGAUCAGUUGUCUUU
B2: Ib_S4_P4E.1_K4.1_C4.1_H4.1_[T1C]_[A4T]_A4.1_F4.1_T4.1 (ssRNA)
RNA: B1 RNA with U24C, C27U, G32A
B3: Ib_S4_P4E.1_K4.1_C4.1_H4.1_[G2A]_[A4T]_A4.1_F4.1_T4.1 (ssRNA)
RNA: B1 RNA with G25A, C27U, G32A
B4: Ib_S4_P4E.1_K4.1_C4.1_H4.1_[T1A]_A4.1_[T5A]_F4.1_T4.1 (ssRNA)
RNA: B1 RNA with U24A, C27A, U28A, G32A
B5: Ib_S4_P4E.1_K4.1_C4.1_H4.1_[G2A]_[A4G]_A4.1_F4.1_T4.1 (ssRNA)
RNA: B1 RNA with G25A, C27G, G32A
B6: Ib_S4_P4E.1_K4.1_C4.1_H4.1_[T1A]_[G2C]_A4.1_F4.1_T4.1 (ssRNA)
RNA: B1 RNA with U24A, G25C, C27A, G32A
B7: Ib_S4_P4E.1_K4.1_C4.1_H4.1_[T1G]_A4.1_[T5C]_F4.1_T4.1 (ssRNA)
RNA: B1 RNA with U24G, C27A, U28C, G32A
B8: Ib_S4_P4E.1_K4.1_C4.1_H4.1_A4.1_[A6C]_F4.1_[T8C]_T4.1 (ssRNA)
RNA: B1 RNA with C27A, A29C, U31C, G32A
B9: Ib_S4_P4E.1_K4.1_C4.1_H4.1_[T1G]_[G2T]_A4.1_F4.1_T4.1 (ssRNA)
RNA: B1 RNA with U24G, G25U, C27A, G32A
B10: Ib_S4_P4E.1_K4.1_C4.1_H4.1_A4.1_[T7A]_F4.1_[T8C]_T4.1 (ssRNA)
RNA: B1 RNA with C27A, U30A, U31C, G32A
B11: Ib_S4_P4E.1_K4.1_C4.1_H4.1_[T1A]_A4.1_[A6C]_F4.1_T4.1 (ssRNA)
RNA: B1 RNA with U24A, C27A, A29C, G32A
B12: Ib_S4_P4E.1_K4.1_C4.1_H4.1_A4.1_[A6T]_F4.1_[A9C]_T4.1 (ssRNA)
RNA: B1 RNA with C27A, A29U, G32C
B13: Ib_S4_P4E.1_K4.1_C4.1_H4.1_[T3G]_[A4T]_A4.1_F4.1_T4.1 (ssRNA)
RNA: B1 RNA with U26G, C27U, G32A
B14: Ib_S4_P4E.1_K4.1_C4.1_H4.1_[G2T]_[A4C]_A4.1_F4.1_T4.1 (ssRNA)
RNA: B1 RNA with G25U, G32A
B15: Ib_S4_P4E.1_K4.1_C4.1_H4.1_A4.1_[A6G]_F4.1_[A9C]_T4.1 (ssRNA)
RNA: B1 RNA with C27A, A29G, G32C
B16: Ic_S4_P4E.1_K4.1_C4.1_H4.1_A4.1_[T7C]_F4.1_[A9T]_T4.1 (ssRNA)
RNA: B1 RNA with C27A, U30C, G32U
B17: Ib_S4_P4E.1_K4.1_C4.1_H4.1_[T1C]_A4.1_[T5A]_F4.1_T4.1 (ssRNA)
RNA: B1 RNA with U24C, C27A, U28A, G32A
B18: Ib_S4_P4E.1_K4.1_C4.1_H4.1_[T1A]_[T3C]_A4.1_F4.1_T4.1 (ssRNA)
RNA: B1 RNA with U24A, U26C, C27A, G32A
B19: Ib_S4_P4E.1_K4.1_C4.1_H4.1_A4.1_[A6G]_F4.1_[T8C]_T4.1 (ssRNA)
RNA: B1 RNA with C27A, A29G, U31C, G32A
B20: Ib_S4_P4E.1_K4.1_C4.1_H4.1_[T1G]_[A4T]_A4.1_F4.1_T4.1 (ssRNA)
RNA: B1 RNA with U24G, C27U, G32A
B21: Ib_S4_P4E.1_K4.1_C4.1_H4.1_[A4T]_A4.1_F4.1_[A9C]_T4.1 (ssRNA)
RNA: B1 RNA with C27U, G32C
B22: Ib_S4_P4E.1_K4.1_C4.1_H4.1_A4.1_[T5A]_F4.1_[T8A]_T4.1 (ssRNA)
RNA: B1 RNA with C27A, U28A, U31A, G32A
B23: Ib_S4_P4E.1_K4.1_C4.1_H4.1_[G2T]_[T3C]_A4.1_F4.1_T4.1 (ssRNA)
RNA: B1 RNA with G25U, U26C, C27A, G32A
B24: Ib_S4_P4E.1_K4.1_C4.1_H4.1_A4.1_[A6C]_F4.1_[A9T]_T4.1 (ssRNA)
RNA: B1 RNA with C27A, A29C, G32U
B25: Ib_S4_P4E.1_K4.1_C4.1_H4.1_[A4C]_A4.1_F4.1_[A9T]_T4.1 (ssRNA)
RNA: B1 RNA with G32U
B26: Ic_S4_P4E.1_K4.1_C4.1_H4.1_A4.1_[T7G]_F4.1_[A9G]_T4.1 (ssRNA)
RNA: B1 RNA with C27A, U30G
B27: Ib_S4_P4E.1_K4.1_C4.1_H4.1_A4.1_[T5C]_F4.1_[T8C]_T4.1 (ssRNA)
RNA: B1 RNA with C27A, U28C, U31C, G32A
B28: Ic_S4_P4E.1_K4.1_C4.1_H4.1_A4.1_[T5C]_F4.1_[A9T]_T4.1 (ssRNA)
RNA: B1 RNA with C27A, U28C, G32U
B29: Ib_S4_P4E.1_K4.1_C4.1_H4.1_[T1A]_[A4T]_A4.1_F4.1_T4.1 (ssRNA)
RNA: B1 RNA with U24A, C27U, G32A
B30: Ib_S4_P4E.1_K4.1_C4.1_H4.1_[T1C]_[G2C]_A4.1_F4.1_T4.1 (ssRNA)
RNA: B1 RNA with U24C, G25C, C27A, G32A
B31: Ib_S4_P4E.1_K4.1_C4.1_H4.1_[A4G]_A4.1_F4.1_[A9C]_T4.1 (ssRNA)
RNA: B1 RNA with C27G, G32C
B32: Ib_S4_P4E.1_K4.1_C4.1_H4.1_A4.1_[T5A]_F4.1_[A9G]_T4.1 (ssRNA)
RNA: B1 RNA with C27A, U28A
B33: Ib_S4_P4E.1_K4.1_C4.1_H4.1_[T3C]_[A4C]_A4.1_F4.1_T4.1 (ssRNA)
RNA: B1 RNA with U26C, G32A
B34: Ib_S4_P4E.1_K4.1_C4.1_H4.1_[T1G]_[A4C]_A4.1_F4.1_T4.1 (ssRNA)
RNA: B1 RNA with U24G, G32A
B35: Ib_S4_P4E.1_K4.1_C4.1_H4.1_[T1G]_[A4G]_A4.1_F4.1_T4.1 (ssRNA)
RNA: B1 RNA with U24G, C27G, G32A
B36: Ib_S4_P4E.1_K4.1_C4.1_H4.1_A4.1_[T7C]_F4.1_[A9C]_T4.1 (ssRNA)
RNA: B1 RNA with C27A, U30C, G32C
B37: Ib_S4_P4E.1_K4.1_C4.1_H4.1_[T1C]_A4.1_[A6T]_F4.1_T4.1 (ssRNA)
RNA: B1 RNA with U24C, C27A, A29U, G32A
B38: Ib_S4_P4E.1_K4.1_C4.1_H4.1_[T1C]_[G2T]_A4.1_F4.1_T4.1 (ssRNA)
RNA: B1 RNA with U24C, G25U, C27A, G32A
B39: Ib_S4_P4E.1_K4.1_C4.1_H4.1_A4.1_[T7C]_F4.1_[T8A]_T4.1 (ssRNA)
RNA: B1 RNA with C27A, U30C, U31A, G32A
B40: Ib_S4_P4E.1_K4.1_C4.1_H4.1_[T1G]_A4.1_[A6T]_F4.1_T4.1 (ssRNA)
RNA: B1 RNA with U24G, C27A, A29U, G32A
B41: Ib_S4_P4E.1_K4.1_C4.1_H4.1_[G2C]_[T3C]_A4.1_F4.1_T4.1 (ssRNA)
RNA: B1 RNA with G25C, U26C, C27A, G32A
B42: Ib_S4_P4E.1_K4.1_C4.1_H4.1_A4.1_[T5A]_F4.1_[T8C]_T4.1 (ssRNA)
RNA: B1 RNA with C27A, U28A, U31C, G32A
B43: Ib_S4_P4E.1_K4.1_C4.1_H4.1_[G2T]_[A4G]_A4.1_F4.1_T4.1 (ssRNA)
RNA: B1 RNA with G25U, C27G, G32A
B44: Ib_S4_P4E.1_K4.1_C4.1_H4.1_[T1C]_A4.1_[A6G]_F4.1_T4.1 (ssRNA)
RNA: B1 RNA with U24C, C27A, A29G, G32A
B45: Ib_S4_P4E.1_K4.1_C4.1_H4.1_A4.1_[T7A]_F4.1_[T8A]_T4.1 (ssRNA)
RNA: B1 RNA with C27A, U30A, U31A, G32A
B46: Ib_S4_P4E.1_K4.1_C4.1_H4.1_A4.1_[A6T]_F4.1_[T8C]_T4.1 (ssRNA)
RNA: B1 RNA with C27A, A29U, U31C, G32A
B47: Ib_S4_P4E.1_K4.1_C4.1_H4.1_[A4C]_A4.1_F4.1_[A9C]_T4.1 (ssRNA)
RNA: B1 RNA with G32C
B48: Ic_S4_P4E.1_K4.1_C4.1_H4.1_A4.1_[A6C]_F4.1_[A9G]_T4.1 (ssRNA)
RNA: B1 RNA with C27A, A29C
B49: Ib_S4_P4E.1_K4.1_C4.1_H4.1_A4.1_[T7G]_F4.1_[T8C]_T4.1 (ssRNA)
RNA: B1 RNA with C27A, U30G, U31C, G32A
B50: Ib_S4_P4E.1_K4.1_C4.1_H4.1_[T1A]_[G2T]_A4.1_F4.1_T4.1 (ssRNA)
RNA: B1 RNA with U24A, G25U, C27A, G32A
B51: Ib_S4_P4E.1_K4.1_C4.1_H4.1_[T1C]_[G2A]_A4.1_F4.1_T4.1 (ssRNA)
RNA: B1 RNA with U24C, G25A, C27A, G32A
B52: Ib_S4_P4E.1_K4.1_C4.1_H4.1_A4.1_[A6T]_F4.1_[A9G]_T4.1 (ssRNA)
RNA: B1 RNA with C27A, A29U
B53: Ia_S4_P3E.1_K3.1_C3.1_H3.1_[T1A]_A3.1_F3.1_T3.1 (ssRNA)
RNA: UUUGACAACUGAUCGUUCUUUCUAGUAUAUAUUCUUUCUCGAUCAGUUGUCUUU
B54: Ic_S4_P3E.1_K3.1_C3.1_H3.1_A3.1_[A6C]_F3.1_T3.1 (ssRNA)
RNA: B53 RNA with A24U, A29C
B55: Ic_S4_P3E.1_K3.1_C3.1_H3.1_A3.1_[T5C]_F3.1_T3.1 (ssRNA)
RNA: B53 RNA with A24U, U28C
B56: Ia_S4_P3E.1_K3.1_C3.1_H3.1_[A4T]_A3.1_F3.1_T3.1 (ssRNA)
RNA: B53 RNA with A24U, A27U
B57: Ia_S4_P3E.1_K3.1_C3.1_H3.1_[G2C]_A3.1_F3.1_T3.1 (ssRNA)
RNA: B53 RNA with A24U, G25C

The binders below were run against T1, PUF4 RNA-binding domain (Saccharomyces cerevisiae, UniProt P25339 537-888) (assay: Mg; RNA-MaP; 20 mM Na-HEPES pH 7.4, 30 mM KOAc, 0.75 mM MgCl2, 0.1% Tween-20, 5% glycerol, 0.1 mg/mL BSA, 2 mM DTT; 25 C; 0.0125-409.6 nM protein). Details: tags: N-His6-TEV cleaved; C-SNAP kept, Cy3B-labelled; label: tethered on chip by stalled RNA polymerase.
T1 sequence: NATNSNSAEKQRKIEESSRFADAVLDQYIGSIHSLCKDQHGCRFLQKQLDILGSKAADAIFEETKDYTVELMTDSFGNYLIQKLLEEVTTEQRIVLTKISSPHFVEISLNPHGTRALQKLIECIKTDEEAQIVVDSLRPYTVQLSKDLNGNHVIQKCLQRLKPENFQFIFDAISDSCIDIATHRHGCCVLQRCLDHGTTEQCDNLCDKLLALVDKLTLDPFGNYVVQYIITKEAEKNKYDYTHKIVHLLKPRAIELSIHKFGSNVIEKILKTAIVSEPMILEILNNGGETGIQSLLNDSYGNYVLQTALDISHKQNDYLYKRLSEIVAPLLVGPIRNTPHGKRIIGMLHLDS

Binder | Kd [nM]
B1 | 252
B2 | 615
B3 | 669
B4 | 858
B5 | 15.2
B6 | 481
B7 | 42.9
B8 | 22.1
B9 | 41.2
B10 | 19.6
B11 | 2270
B12 | 17.8
B13 | 1280
B14 | > 2300
B15 | 15.5
B16 | 7
B17 | 182
B18 | 1880
B19 | 136

Binder | Kd [nM]
B20 | 1600
B21 | 406
B22 | 27.4
B23 | 2000
B24 | 10.8
B25 | 268
B26 | 13.5
B27 | 8.87
B28 | 1.94
B29 | > 2300
B30 | 331
B31 | 12.1
B32 | 19.7
B33 | 814
B34 | > 2300
B35 | 40.1
B36 | 10.1
B37 | 133
B38 | 401

Binder | Kd [nM]
B39 | 18.4
B40 | 971
B41 | 2090
B42 | 78.4
B43 | 7.27
B44 | 700
B45 | 29.8
B46 | 84.2
B47 | 501
B48 | 11.3
B49 | 51.1
B50 | 686
B51 | 168
B52 | 8.2
B53 | 819
B54 | 10.1
B55 | 1.93
B56 | 86.8
B57 | 360
